The supplement of paper PMC10899765

Each sequence was assayed on MCF10A (assay: percent viability (nuclei count relative to siNT); higher = more viable cells). Conditions: 20 nM; 72 h.
Experimental: (§1)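 After 72 h, cells were fixed and stained with Hoechst and anti-fibrillarin, and nucleoli per nucleus were counted with CellProfiler. Values are plate-adjusted percent effect for the one-nucleolus and 5+ nucleoli phenotypes, normalised to siNT (0%) and to the positive controls siNOL11 or siKIF11 (100%), as the mean of biological triplicates. Percent viability is the nuclei count relative to siNT.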

Row | Sequence | percent viability [%]
1 | AUCCCUUGCAGGGGCUGUUGGGU [hsa-miR-623] | 91.7
2 | UAACCCUGUCCUCUCCCUCCCAG [hsa-miR-6732-3p] | 36.4
3 | ACUGGGGGCUUUCGGGCUCUGCGU [hsa-miR-637] | 22.7
4 | GGGAGAAGGGUCGGGGC [hsa-miR-4516] | 94.1
5 | AAGGGGCAGGGACGGGUGGCCC [hsa-miR-6743-5p] | 29.4
6 | UUAGAACGUUUUAGGGUCAAAU [hsa-miR-5687] | 50.5
7 | CCUGAUCCCACAGCCCACCU [hsa-miR-3151-3p] | 66.1
8 | GGGCGCCUGUGAUCCCAAC [hsa-miR-566] | 81.2
9 | AUAAUACAUGGUUAACCUCUUU [hsa-miR-655] | 118
10 | UGUGAUAUCAUGGUUCCUGGGA [hsa-miR-3689e] | 30.9
11 | UGGAGUUAAGGGUUGCUUGGAGA [hsa-miR-4653-3p] | 12.9
12 | CCCGCAGGUGAGAUGAGGGCU [hsa-miR-6886-5p] | 28.8
13 | UCGGAUCCGUCUGAGCUUGGCU [hsa-miR-127-3p] | 41.5
14 | UAUCCAGCUUGUUACUAUAUGC [hsa-miR-5586-5p] | 47.2
15 | GGGCGACAAAGCAAGACUCUUUCUU [hsa-miR-1273a] | 78.8
16 | AAAGACCGUGACUACUUUUGCA [hsa-miR-548ao-3p] | 80.6
17 | GGAUGGUUGGGGGCGGUCGGCGU [hsa-miR-8069] | 33.5
18 | ACUGCCCUAAGUGCUCCUUCUGG [hsa-miR-18a-3p] | 58.7
19 | CAAAAACCGCAAUUACUUUUGCA [hsa-miR-548z] | 36
20 | UACCCUGUAGAACCGAAUUUGUG [hsa-miR-10b-5p] | 30.6

Row | Sequence | percent viability [%]
21 | UUGCUAGUUGCACUCCUCUCUGU [hsa-miR-449c-3p] | 27.2
22 | ACUUGGGCACUGAAACAAUGUCC [hsa-miR-635] | 65.6
23 | AGGUAGACUGGGAUUUGUUGUU [hsa-miR-3529-5p] | 21.7
24 | GCAGAGUGCAAACAAUUUUGAC [hsa-miR-759] | 90.2
25 | UUAAUGCUAAUCGUGAUAGGGGU [hsa-miR-155-5p] | 38.2
26 | CAGGCCAUAUUGUGCUGCCUCA [hsa-miR-15a-3p] | 29.6
27 | GUGGGUAGGGUUUGGGGGAGAGCG [hsa-miR-1229-5p] | 67.9
28 | AGAGAUGAAGCGGGGGGGCG [hsa-miR-6088] | 91.6
29 | ACUGCUGAGCUAGCACUUCCCG [hsa-miR-93-3p] | 33.2
30 | UGAGGAUGGAUAGCAAGGAAGCC [hsa-miR-3605-5p] | 69.7
31 | CAUCAUCGUCUCAAAUGAGUCU [hsa-miR-136-3p] | 37.4
32 | AGCCAGGCUCUGAAGGGAAAGU [hsa-miR-4755-3p] | 59.3
33 | GAAAACGACAAUGACUUUUGCA [hsa-miR-548ad] | 129
34 | AGGGGACUGGUUAAUAGAACUA [hsa-miR-4652-5p] | 14.5
35 | UGGCUGCUUCCCUUGGUCUCCAG [hsa-miR-6762-3p] | 20.3
36 | ACUGGACUAGGAGUCAGAAGG [hsa-miR-378i] | 32.1
37 | AGUCAUUGGAGGGUUUGAGCAG [hsa-miR-616-3p] | 85.2
38 | UCUGGCCUUGACUUGACUCUUU [hsa-miR-3922-3p] | 35.7
39 | AGUGAAUGAUGGGUUCUGACC [hsa-miR-1257] | 25.9
40 | CUAAUAGUAUCUACCACAAUAAA [hsa-miR-633] | 107

Row | Sequence | percent viability [%]
41 | CCGGUUCCAGUCCCUGGAG [hsa-miR-6070] | 55.6
42 | GGCUUUCUAGUCUCAGCUCUCC [hsa-miR-3160-5p] | 110
43 | AGGGAAGGAGGCUUGGUCUUAG [hsa-miR-4747-5p] | 29.6
44 | AAAGGAAAGUGUAUCCUAAAAG [hsa-miR-651-3p] | 139
45 | UGAUUGUCCAAACGCAAUUCU [hsa-miR-219-5p] | 82.1
46 | GUGAGGCGGGGCCAGGAGGGUGUGU [hsa-miR-6765-5p] | 72.9
47 | AAGCCCUGUCUCCUCCCAUCU [hsa-miR-6779-3p] | 68.1
48 | UUUUCAACUCUAAUGGGAGAGA [hsa-miR-1305] | 72.2
49 | UUCAUUUGCCUCCCAGCCUACA [hsa-miR-664b-3p] | 28.7
50 | UGCAUCAGGCCAGAAGACAUGAG [hsa-miR-4711-5p] | 23.9
51 | UGAGGGACAGAUGCCAGAAGCA [hsa-miR-3126-5p] | 16.2
52 | UGAGGGAGUGGAUUGUAUG [hsa-miR-6130] | 16.7
53 | GCCCAGGACUUUGUGCGGGGUG [hsa-miR-6840-3p] | 117
54 | CUUAGCAGGUUGUAUUAUCAUU [hsa-miR-374b-3p] | 67.5
55 | AUGUAGGGCUAAAAGCCAUGGG [hsa-miR-135b-3p] | 14.3
56 | UCAGCUGGCCCUCAUUUC [hsa-miR-1207-3p] | 15.3
57 | AUAACAUUGUAAAGCGCUUCUUUCG [hsa-miR-3143] | 68.7
58 | AAGUGCUGUCAUAGCUGAGGUC [hsa-miR-512-3p] | 69.7
59 | GUGAGGAGGGGCUGGCAGGGAC [hsa-miR-6858-5p] | 84.1

Each sequence was assayed on MCF10A (assay: 5+ nucleoli phenotype percent effect (relative to siNT 0% and siKIF11 100%); higher = more cells with five or more nucleoli). Conditions: 20 nM; 72 h.
Experimental: as §1

Row | Sequence | 5+ nucleoli phenotype percent effect [%]
60 | AUCCCUUGCAGGGGCUGUUGGGU [hsa-miR-623] | 53.3
61 | UAACCCUGUCCUCUCCCUCCCAG [hsa-miR-6732-3p] | 1.9
62 | ACUGGGGGCUUUCGGGCUCUGCGU [hsa-miR-637] | -19.4
63 | GGGAGAAGGGUCGGGGC [hsa-miR-4516] | 31.9
64 | AAGGGGCAGGGACGGGUGGCCC [hsa-miR-6743-5p] | 0.112
65 | UUAGAACGUUUUAGGGUCAAAU [hsa-miR-5687] | 16.2
66 | CCUGAUCCCACAGCCCACCU [hsa-miR-3151-3p] | 2.64
67 | GGGCGCCUGUGAUCCCAAC [hsa-miR-566] | 39.3
68 | AUAAUACAUGGUUAACCUCUUU [hsa-miR-655] | -21.2
69 | UGUGAUAUCAUGGUUCCUGGGA [hsa-miR-3689e] | -30.6
70 | UGGAGUUAAGGGUUGCUUGGAGA [hsa-miR-4653-3p] | -39.9
71 | CCCGCAGGUGAGAUGAGGGCU [hsa-miR-6886-5p] | -23.1
72 | UCGGAUCCGUCUGAGCUUGGCU [hsa-miR-127-3p] | -26.8
73 | UAUCCAGCUUGUUACUAUAUGC [hsa-miR-5586-5p] | 7.77
74 | GGGCGACAAAGCAAGACUCUUUCUU [hsa-miR-1273a] | -17.3
75 | AAAGACCGUGACUACUUUUGCA [hsa-miR-548ao-3p] | -18.1
76 | GGAUGGUUGGGGGCGGUCGGCGU [hsa-miR-8069] | -16.7
77 | ACUGCCCUAAGUGCUCCUUCUGG [hsa-miR-18a-3p] | 4.11
78 | CAAAAACCGCAAUUACUUUUGCA [hsa-miR-548z] | -14.9
79 | UACCCUGUAGAACCGAAUUUGUG [hsa-miR-10b-5p] | -26.1
80 | UUGCUAGUUGCACUCCUCUCUGU [hsa-miR-449c-3p] | -15.1
81 | ACUUGGGCACUGAAACAAUGUCC [hsa-miR-635] | 32.7
82 | AGGUAGACUGGGAUUUGUUGUU [hsa-miR-3529-5p] | -26.7
83 | GCAGAGUGCAAACAAUUUUGAC [hsa-miR-759] | 51.1
84 | UUAAUGCUAAUCGUGAUAGGGGU [hsa-miR-155-5p] | -38.5
85 | CAGGCCAUAUUGUGCUGCCUCA [hsa-miR-15a-3p] | -27.1
86 | GUGGGUAGGGUUUGGGGGAGAGCG [hsa-miR-1229-5p] | 53.7
87 | AGAGAUGAAGCGGGGGGGCG [hsa-miR-6088] | 6.48
88 | ACUGCUGAGCUAGCACUUCCCG [hsa-miR-93-3p] | -7.82
